B1: TPR t1 (parent)
chain: GACCAAUCUGCCCUCAGAGCUCGAGAACAUCUUCGGAUGCAGAGGAGGCAGGCUUCGGUGGCGCGAUAGCGCCAACGUCCUCAACCUCCAAUGCAUCCCACCACAUGAUGAUGCCUGAAGAGCCUUGGUUUUUUG

Variants of: B1
Test: polymerase ribozyme fitness, log enrichment relative to wild type (log ratio); higher = more active; in vitro selection for triplet polymerase activity
Outline: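 Fitness is a logarithmic measure of how a genotype enriched relative to the wild type, with replicate averages weighted by inverse variance. The logarithm uses base 2, and enrichment came from Illumina sequencing of input and output libraries. Those libraries were PCR-built, transcribed mutants of each subunit of a heterodimeric triplet polymerase ribozyme, passed through one triplicate in vitro selection round that included frozen incubation at −7 °C, gel excision of extended constructs and streptavidin-bead capture. Genotypes were kept only if they had ≥10 input reads and ≥1 read per output.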

First: G107A A108G G120A C124A
Second: G107A G122A
The “polymerase ribozyme fitness (log ratio)” value of the first is higher: -3.55 for the first, -5.18 for the second.

Compared with G107A U130C, G107C G110A G117A U130C is lower in “polymerase ribozyme fitness (log ratio)” value: -4.85 for the first, -6.86 for the second.

First: G107U A111U
Second: G107U C114U
The “polymerase ribozyme fitness (log ratio)” value of the first is lower: -4.03 for the first, -3.8 for the second.

Compared with G107U G113A, A108G G113A is higher in “polymerase ribozyme fitness (log ratio)” value: -3.27 for the first, -2.47 for the second.

Going from A108U C123A to A108U C123G, the “polymerase ribozyme fitness (log ratio)” value rises from -5.15 to -3.08.

A108U G120U and U109A are within 0.2 log units of each other in “polymerase ribozyme fitness (log ratio)” value: -5.29 for the first, -5.11 for the second.

Going from U109A G120C to U109A U131G, the “polymerase ribozyme fitness (log ratio)” value falls from -4 to -5.71.

First: U109A U132C
Second: U109C
The “polymerase ribozyme fitness (log ratio)” value of the first is lower: -5.12 for the first, -2.41 for the second.

Going from U109C A118U to U109C C114U, the “polymerase ribozyme fitness (log ratio)” value falls from -4.34 to -4.7.

U109C U132A and U109G are within 0.2 log units of each other in “polymerase ribozyme fitness (log ratio)” value: -4.52 for the first, -4.35 for the second.

Compared with U109G A118G, G110A A118G is higher in “polymerase ribozyme fitness (log ratio)” value: -5.14 for the first, -1.12 for the second.

First: G110A C124G G128C
Second: G110A G113A
The “polymerase ribozyme fitness (log ratio)” value of the first is higher: -3.19 for the first, -3.95 for the second.

Going from G110A G117U to G110A G122A C123U, the “polymerase ribozyme fitness (log ratio)” value rises from -4.78 to -2.1.

Going from G110A G127C to G110A G128U, the “polymerase ribozyme fitness (log ratio)” value falls from -1.94 to -3.47.

Compared with G110A U112C G117A, G110C A118U is higher in “polymerase ribozyme fitness (log ratio)” value: -4.79 for the first, -4.26 for the second.

Going from G110C C115U to G110C G117U, the “polymerase ribozyme fitness (log ratio)” value falls from -4.71 to -5.43.

Compared with G110C G120U, G110C G128U is lower in “polymerase ribozyme fitness (log ratio)” value: -4.38 for the first, -4.78 for the second.

Going from G110C U125C to G110C U129G, the “polymerase ribozyme fitness (log ratio)” value falls from -2.68 to -5.19.

Compared with G110C U133A, G110U A121C is higher in “polymerase ribozyme fitness (log ratio)” value: -4.65 for the first, -2.17 for the second.

First: G110U C123U
Second: G110U G117C
The “polymerase ribozyme fitness (log ratio)” value of the first is higher: -1.39 for the first, -5.42 for the second.

Going from G110U G135C to A111C G122U C123U U130C, the “polymerase ribozyme fitness (log ratio)” value rises from -1.54 to -0.737.

Compared with A111C U126C, A111C U131A is lower in “polymerase ribozyme fitness (log ratio)” value: 0.272 for the first, -1.12 for the second.

First: A111G C114G C123U
Second: A111G U132A
The “polymerase ribozyme fitness (log ratio)” value of the first is lower: -6.41 for the first, 0.715 for the second.

Going from A111U C123U G127C to A111U G113A, the “polymerase ribozyme fitness (log ratio)” value rises from -4.76 to -4.49.

First: A111U G113C C115G
Second: A111U U125A
The “polymerase ribozyme fitness (log ratio)” value of the first is lower: -7.15 for the first, -3.84 for the second.

First: U112A C115A
Second: U112A G117A G120U C124G
The “polymerase ribozyme fitness (log ratio)” value of the first is higher: 1.16 for the first, -1.37 for the second.

Going from U112A G120A to U112A G128U, the “polymerase ribozyme fitness (log ratio)” value falls from 0.565 to -0.362.

Going from U112A G135A to U112A U130C, the “polymerase ribozyme fitness (log ratio)” value falls from 2.15 to 1.38.

U112A U130G and U112C C123A are within 0.2 log units of each other in “polymerase ribozyme fitness (log ratio)” value: -0.266 for the first, -0.0765 for the second.

Compared with U112C U116A, U112C U129C is higher in “polymerase ribozyme fitness (log ratio)” value: -1.02 for the first, 0.894 for the second.

First: U112C U132A
Second: U112G A118G
The “polymerase ribozyme fitness (log ratio)” value of the first is higher: 1.65 for the first, 0.909 for the second.

Going from U112G G127C U130C to U112G G128C, the “polymerase ribozyme fitness (log ratio)” value falls from -0.498 to -2.91.

First: U112G U125C
Second: G113A A119U U126A
The “polymerase ribozyme fitness (log ratio)” value of the first is higher: 0.47 for the first, -3.89 for the second.

Compared with G113A C115U, G113A G122A is higher in “polymerase ribozyme fitness (log ratio)” value: -3.6 for the first, -2.77 for the second.

Going from G113A G128A to G113A G135U, the “polymerase ribozyme fitness (log ratio)” value rises from -2.92 to -2.05.

First: G113A U134G G135U
Second: G113C C115U
The “polymerase ribozyme fitness (log ratio)” value of the first is higher: -1.24 for the first, -3.35 for the second.

First: G113C C124U G127C
Second: G113C G120U
The “polymerase ribozyme fitness (log ratio)” value of the first is lower: -3.7 for the first, -3.23 for the second.

Going from G113C G122A to G113C G122U, the “polymerase ribozyme fitness (log ratio)” value rises from -3.11 to -1.42.

First: G113C G127C
Second: G113C G128U
The “polymerase ribozyme fitness (log ratio)” value of the first is higher: -3.73 for the first, -4.01 for the second.

Compared with G113C U133A, G113U C114A is lower in “polymerase ribozyme fitness (log ratio)” value: -2.13 for the first, -4.29 for the second.

Compared with G113U C124G, G113U G122A is lower in “polymerase ribozyme fitness (log ratio)” value: -1.38 for the first, -2.45 for the second.

First: G113U U126A
Second: G113U U129A
The “polymerase ribozyme fitness (log ratio)” value of the first is lower: -4.71 for the first, -3.53 for the second.

First: G113U U133C
Second: C114A G117U
The “polymerase ribozyme fitness (log ratio)” value of the first is higher: -2.64 for the first, -6.19 for the second.

Going from C114A G122A to C114A G128C, the “polymerase ribozyme fitness (log ratio)” value falls from -2.53 to -3.78.

First: C114A G128U
Second: C114A U116G
The “polymerase ribozyme fitness (log ratio)” value of the first is higher: -3.33 for the first, -3.78 for the second.

First: C114G C124A
Second: C114G G127A
The “polymerase ribozyme fitness (log ratio)” value of the first is higher: -1.15 for the first, -4.97 for the second.

Compared with C114G G135U, C114U C123U is higher in “polymerase ribozyme fitness (log ratio)” value: -2.93 for the first, -1.92 for the second.

Going from C114U G117C to C114U U126A, the “polymerase ribozyme fitness (log ratio)” value rises from -7.14 to -3.35.

Going from C114U U129A to C114U U129G, the “polymerase ribozyme fitness (log ratio)” value falls from -3.98 to -4.52.

Going from C115A A119U G122U to C115A C124U, the “polymerase ribozyme fitness (log ratio)” value rises from -0.198 to 0.564.

Going from C115A G120U to C115A G122A, the “polymerase ribozyme fitness (log ratio)” value falls from -0.0245 to -0.767.

Going from C115A U126C to C115G G128U, the “polymerase ribozyme fitness (log ratio)” value falls from -0.397 to -5.

Going from C115G U126C U132A to C115U C124G, the “polymerase ribozyme fitness (log ratio)” value rises from -4.83 to 0.35.

Going from C115U G117A to C115U G128A, the “polymerase ribozyme fitness (log ratio)” value falls from -1.61 to -2.99.

Going from C115U U116C to C115U U126G, the “polymerase ribozyme fitness (log ratio)” value falls from -2.06 to -3.36.

First: C115U U131A
Second: C115U U133A
The “polymerase ribozyme fitness (log ratio)” value of the first is higher: -0.58 for the first, -0.794 for the second.

Compared with U116A A121G, U116A U125A is lower in “polymerase ribozyme fitness (log ratio)” value: 0.178 for the first, -3.4 for the second.

First: U116C G127A U130G
Second: U116C U130G
The “polymerase ribozyme fitness (log ratio)” value of the first is lower: -4.14 for the first, -1.58 for the second.

Going from U116G G117C to U116G G128U, the “polymerase ribozyme fitness (log ratio)” value falls from -2.43 to -4.55.

First: G117A A121C
Second: G117A C123A
The “polymerase ribozyme fitness (log ratio)” value of the first is lower: -0.623 for the first, -0.382 for the second.

First: G117A G120A
Second: G117A G128C
The “polymerase ribozyme fitness (log ratio)” value of the first is higher: -2.42 for the first, -3.45 for the second.

Compared with G117A U125A, G117A U130A is higher in “polymerase ribozyme fitness (log ratio)” value: -3.14 for the first, -2.15 for the second.

Going from G117A U133A to G117C A121C, the “polymerase ribozyme fitness (log ratio)” value falls from -1.2 to -3.29.

First: G117C A121G U130C
Second: G117C C124A
The “polymerase ribozyme fitness (log ratio)” value of the first is higher: 0.325 for the first, -1.5 for the second.

Compared with G117C G120C, G117C G122U is lower in “polymerase ribozyme fitness (log ratio)” value: -3.46 for the first, -3.99 for the second.

Going from G117C U130G to G117C U131A, the “polymerase ribozyme fitness (log ratio)” value falls from -3.7 to -4.01.

Going from G117C U132A to G117U A118U U130C, the “polymerase ribozyme fitness (log ratio)” value rises from -3.52 to -3.28.

Compared with G117U A119U C123U, G117U G120A is lower in “polymerase ribozyme fitness (log ratio)” value: -0.29 for the first, -2.24 for the second.

First: G117U U129A
Second: A118C
The “polymerase ribozyme fitness (log ratio)” value of the first is lower: -3.5 for the first, -2.45 for the second.

Compared with A118G, A118U is higher in “polymerase ribozyme fitness (log ratio)” value: -0.226 for the first, 0.282 for the second.

First: A118U C123U
Second: A118U G120U
The “polymerase ribozyme fitness (log ratio)” value of the first is lower: -0.82 for the first, -0.245 for the second.

A118U G128A and A118U U133A are within 0.2 log units of each other in “polymerase ribozyme fitness (log ratio)” value: -1.29 for the first, -1.21 for the second.

Going from A119U A121U to A119U C123A, the “polymerase ribozyme fitness (log ratio)” value falls from 1.77 to -0.124.

First: A119U C123U
Second: A119U G127U
The “polymerase ribozyme fitness (log ratio)” value of the first is higher: 2.17 for the first, -2.01 for the second.

First: A119U U132A
Second: G120A
The “polymerase ribozyme fitness (log ratio)” value of the first is lower: -0.132 for the first, 0.66 for the second.

First: G120A G122U
Second: G120A G127C
The “polymerase ribozyme fitness (log ratio)” value of the first is higher: 0.476 for the first, -0.483 for the second.

G120A U132C and G120C are within 0.2 log units of each other in “polymerase ribozyme fitness (log ratio)” value: 0.977 for the first, 1.05 for the second.

Going from G120C G128C to G120C G135A, the “polymerase ribozyme fitness (log ratio)” value rises from -2.04 to 0.738.

First: G120C G135U
Second: G120U
The “polymerase ribozyme fitness (log ratio)” value of the first is lower: -0.76 for the first, 0.195 for the second.

First: G120U C123G
Second: G120U G128C
The “polymerase ribozyme fitness (log ratio)” value of the first is higher: 1.47 for the first, -1.03 for the second.

Compared with G120U G135C, A121C G128A is lower in “polymerase ribozyme fitness (log ratio)” value: 1.16 for the first, 0.0676 for the second.

Going from A121C G128C to A121C U125G, the “polymerase ribozyme fitness (log ratio)” value rises from -0.622 to 0.923.

First: A121U G135C
Second: A121U U125A
The “polymerase ribozyme fitness (log ratio)” value of the first is higher: 2.99 for the first, 1.66 for the second.

In the case of G122A, the “polymerase ribozyme fitness (log ratio)” value is reported as -0.49.

— the RNAGym collection of RNA variant scans (doi:10.1073/pnas.2313332121)
